Positions count from the first letter of the chain named.

The target of data set [1] is mIL-2/PSAcs/4x linker/mIL-2Rα (UniProt P04351).
Data set [2] addresses mouse IL-2/PSAcs/Mip-1α fusion protein (UniProt P04351).
For data set [3], the target named is hIL-2/PSAcs/2x linker/scFv + 6His (UniProt P60568).
In data set [4] the target is mIL-2/PSAcs/2x linker/mIL-2Rα (UniProt P04351).
Data set [5] addresses T1, mIL-2/MMP1cs/4x linker/mIL-2Rα + 6His (UniProt P04351).
T1 sequence: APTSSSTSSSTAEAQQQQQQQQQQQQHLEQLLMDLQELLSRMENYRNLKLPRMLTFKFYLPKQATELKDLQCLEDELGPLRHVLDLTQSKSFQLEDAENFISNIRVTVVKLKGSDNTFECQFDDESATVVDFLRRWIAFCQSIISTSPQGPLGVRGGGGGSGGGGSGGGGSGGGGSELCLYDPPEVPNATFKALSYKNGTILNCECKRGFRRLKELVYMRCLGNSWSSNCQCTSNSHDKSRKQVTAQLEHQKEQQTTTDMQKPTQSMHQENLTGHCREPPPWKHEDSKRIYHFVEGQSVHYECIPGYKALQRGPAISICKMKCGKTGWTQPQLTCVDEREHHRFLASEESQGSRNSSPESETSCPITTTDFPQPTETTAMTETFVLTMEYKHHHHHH

In data set [6] the target is T2, mIL-2/MMP4-1cs/4x linker/mIL-2Rα + 6His (UniProt P04351).
T2 sequence: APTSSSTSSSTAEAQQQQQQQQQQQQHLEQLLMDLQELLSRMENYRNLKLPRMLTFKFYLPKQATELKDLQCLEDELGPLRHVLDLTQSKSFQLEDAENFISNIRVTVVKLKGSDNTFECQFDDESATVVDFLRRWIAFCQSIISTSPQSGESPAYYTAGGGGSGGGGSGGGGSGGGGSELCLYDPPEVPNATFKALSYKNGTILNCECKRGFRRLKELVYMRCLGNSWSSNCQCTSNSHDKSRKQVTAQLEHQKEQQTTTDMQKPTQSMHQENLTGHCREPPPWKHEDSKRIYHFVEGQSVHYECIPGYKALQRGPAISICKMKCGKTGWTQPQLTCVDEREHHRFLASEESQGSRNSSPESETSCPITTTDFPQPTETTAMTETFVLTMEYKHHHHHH

Data set [7] concerns the target T3, mIL-2/MMP3-2cs/4x linker/mIL-2Rα + 6His (UniProt P04351).
T3 sequence: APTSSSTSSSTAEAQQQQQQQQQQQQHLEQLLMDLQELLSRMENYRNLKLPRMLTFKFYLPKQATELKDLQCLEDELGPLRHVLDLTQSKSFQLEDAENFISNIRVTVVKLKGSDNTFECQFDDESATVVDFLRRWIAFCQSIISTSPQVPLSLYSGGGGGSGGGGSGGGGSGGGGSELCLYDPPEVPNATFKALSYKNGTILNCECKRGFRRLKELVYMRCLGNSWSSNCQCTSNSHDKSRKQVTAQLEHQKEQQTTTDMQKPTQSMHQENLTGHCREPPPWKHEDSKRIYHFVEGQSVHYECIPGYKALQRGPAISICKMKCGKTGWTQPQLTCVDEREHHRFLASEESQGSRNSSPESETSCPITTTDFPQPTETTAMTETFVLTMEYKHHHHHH

The target of data set [8] is T4, mIL-2/MMP2cs/4x linker/mIL-2Rα + 6His (UniProt P04351).
T4 sequence: T3 sequence with V150I, L152V, Y155R

Chain of matrix metalloproteinase 2 (MMP2), APMA-activated (R & D Systems) (P08253 110-660): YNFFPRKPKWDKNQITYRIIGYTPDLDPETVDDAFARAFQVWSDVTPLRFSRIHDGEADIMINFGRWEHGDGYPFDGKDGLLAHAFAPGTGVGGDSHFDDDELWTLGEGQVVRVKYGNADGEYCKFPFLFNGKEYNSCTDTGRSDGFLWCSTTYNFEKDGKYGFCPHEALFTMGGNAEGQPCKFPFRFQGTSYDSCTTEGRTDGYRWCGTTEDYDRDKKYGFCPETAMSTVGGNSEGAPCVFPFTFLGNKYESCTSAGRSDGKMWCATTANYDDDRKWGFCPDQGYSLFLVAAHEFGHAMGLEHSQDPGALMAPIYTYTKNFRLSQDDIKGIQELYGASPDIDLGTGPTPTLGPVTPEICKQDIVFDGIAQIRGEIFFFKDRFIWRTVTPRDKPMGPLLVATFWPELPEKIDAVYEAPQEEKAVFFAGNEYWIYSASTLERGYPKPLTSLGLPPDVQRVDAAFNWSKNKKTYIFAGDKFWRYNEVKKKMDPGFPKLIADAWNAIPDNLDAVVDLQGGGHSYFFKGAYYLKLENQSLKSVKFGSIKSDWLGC
Chain of hIL-2/PSAcs/2x linker/scFv + 6His (P60568 whole entry, looked up): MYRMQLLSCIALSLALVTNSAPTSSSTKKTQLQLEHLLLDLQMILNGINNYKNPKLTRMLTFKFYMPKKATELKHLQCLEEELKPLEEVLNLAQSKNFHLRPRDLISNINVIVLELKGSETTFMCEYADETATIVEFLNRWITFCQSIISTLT

Consider “prostate specific antigen (PSA), purified (Cortex Biochem)”, for which the figures for the “cleavage by PSA, anti-IL-2 immunoblot” value in data set [1], in data set [2] and in data set [4] were “Immunoblot analyses revealed that the fusion proteins could be cleaved by PSA”, “the IL-2/Mip1α fusion protein could be cleaved by PSA” and “Immunoblot analyses revealed that the fusion proteins could be cleaved by PSA”, respectively. For the same substance, the “cleavage by PSA, anti-human IL-2 immunoblot” value in data set [3] is recorded as “the human IL-2/PSAcs/human scFv-2 fusion protein can be cleaved by PSA”.
In the case of “matrix metalloproteinase 9 (MMP9), APMA-activated (R & D Systems)”, the “cleavage by activated MMP9, immunoblot” value was “These cleavage sites were also capable of being cleaved using activated MMP2 and MMP9” in data set [5]; “These cleavage sites were also capable of being cleaved using activated MMP2 and MMP9” in data set [7]; “These cleavage sites were also capable of being cleaved using activated MMP2 and MMP9” in data set [8]. Besides, in data set [6], the “cleavage by MMP9, anti-IL-2 immunoblot” value was “the fusion protein can be cleaved by MMP2 or MMP9”.
As for “matrix metalloproteinase 2 (MMP2), APMA-activated (R & D Systems)”, the “cleavage by activated MMP2, immunoblot” value in data set [5] was “These cleavage sites were also capable of being cleaved using activated MMP2 and MMP9”; in data set [7] it was “These cleavage sites were also capable of being cleaved using activated MMP2 and MMP9”; in data set [8], “These cleavage sites were also capable of being cleaved using activated MMP2 and MMP9”. Also, in data set [6], the “cleavage by MMP2, anti-IL-2 immunoblot” value is “the fusion protein can be cleaved by MMP2 or MMP9”.

(Values after patent US20130089516.)
